Source: patent US20240059770A1 (Eli Lilly, published 2024)

T1: human oxyntomodulin (53-89) (human)
T1 construct: also called synthetic human oxyntomodulin
T1 peptide: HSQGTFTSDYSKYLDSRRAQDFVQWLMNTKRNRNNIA

B1: Anti-Human Oxyntomodulin N-Terminal Antibody (antibody, V domains shown)
VH: QIQLVQSGPELKKPGETVKISCKASGYTFTDYAFSWVKQAPGKGLKWMGWITTNTGEATYADDFKGRFAFSLETSASTAYLQISNLKNEDTATYFCARETEYGDSSWFGHWGQGTLVTVSA
VL: DIVLTQSPASLAVSLGQRATISCRASESVDGWGNSFMHWYQQKPGQPPKLLIYLATYRVAGIPARFSGSGSRTDFTLTINPVEADDVATYYCMQSSEDPYTFGGGTKLEIKR
notes: In SPR it was captured as IgG by goat anti-mouse IgG; In the sandwich immunoassay it was ruthenium-labelled; also called detection antibody
B2: Anti-Human Oxyntomodulin C-Terminal Antibody (antibody, V domains shown)
VH: QVQVQQSGAELVMPGTSVKLSCKASGYNFTNYWLHWVKQRPGQGLEWIGELDPEYGFANYNQKFKGKATLTVDKSSSTAYMQLSSLTSEDSAVYYCSAGFMDYWGQGTSVTVSS
VL: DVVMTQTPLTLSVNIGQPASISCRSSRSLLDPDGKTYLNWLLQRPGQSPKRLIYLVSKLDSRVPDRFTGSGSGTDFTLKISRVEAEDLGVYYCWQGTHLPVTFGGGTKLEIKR
notes: In SPR it was captured as IgG by goat anti-mouse IgG; In the sandwich immunoassay it was biotin-labelled and held on streptavidin plates; also called capture antibody

Biological target: T1, human oxyntomodulin (53-89)
Test: SPR (Biacore T100), antibody captured by anti-mouse IgG, oxyntomodulin 1.1-90 nmol/L as analyte, 1:1 model
Experimental: Kinetic analysis and binding specificity of the N-Terminal Antibody and the C-Terminal Antibody are determined by surface plasmon resonance using Biacore T100 (GE Healthcare Life Sciences). Goat anti-mouse IgG antibody (Southern Biotech) is immobilized on a Series S CM5 sensor chip and used to capture approximately 1500 response units of anti-oxyntomodulin IgG. Binding to duplicate injections of various concentrations of human oxyntomodulin (SEQ ID NO: 25) (1.1 to 90 nmol/L) diluted in running buffer (HEPES buffered saline containing 3 mmol/L EDTA and 0.05% Tween) and 22.5 nmol/L of either human glicentin span (49-89) (SEQ ID NO: 29) or human glucagon (53-81) (SEQ ID NO: 30) peptides are measured with a flow rate of […]. Kinetic constants are determined using 1:1 binding model with the T100 Evaluation software.
Using Biacore analysis of the N-Terminal Antibody, the equilibrium dissociation constant is 1.5×10⁻¹⁰ mol/L (Table 2).

| Binder | Kd | koff | kon |
| --- | --- | --- | --- |
| B1 | 150 pM | 0.001 s⁻¹ | 7.2e+06 M⁻¹ s⁻¹ |
| B2 | 83 pM | 0.00086 s⁻¹ | 1e+07 M⁻¹ s⁻¹ |
